This assay addresses T1, Aim3 (budding yeast, UniProt P38266 1-947).
T1 sequence (looked up): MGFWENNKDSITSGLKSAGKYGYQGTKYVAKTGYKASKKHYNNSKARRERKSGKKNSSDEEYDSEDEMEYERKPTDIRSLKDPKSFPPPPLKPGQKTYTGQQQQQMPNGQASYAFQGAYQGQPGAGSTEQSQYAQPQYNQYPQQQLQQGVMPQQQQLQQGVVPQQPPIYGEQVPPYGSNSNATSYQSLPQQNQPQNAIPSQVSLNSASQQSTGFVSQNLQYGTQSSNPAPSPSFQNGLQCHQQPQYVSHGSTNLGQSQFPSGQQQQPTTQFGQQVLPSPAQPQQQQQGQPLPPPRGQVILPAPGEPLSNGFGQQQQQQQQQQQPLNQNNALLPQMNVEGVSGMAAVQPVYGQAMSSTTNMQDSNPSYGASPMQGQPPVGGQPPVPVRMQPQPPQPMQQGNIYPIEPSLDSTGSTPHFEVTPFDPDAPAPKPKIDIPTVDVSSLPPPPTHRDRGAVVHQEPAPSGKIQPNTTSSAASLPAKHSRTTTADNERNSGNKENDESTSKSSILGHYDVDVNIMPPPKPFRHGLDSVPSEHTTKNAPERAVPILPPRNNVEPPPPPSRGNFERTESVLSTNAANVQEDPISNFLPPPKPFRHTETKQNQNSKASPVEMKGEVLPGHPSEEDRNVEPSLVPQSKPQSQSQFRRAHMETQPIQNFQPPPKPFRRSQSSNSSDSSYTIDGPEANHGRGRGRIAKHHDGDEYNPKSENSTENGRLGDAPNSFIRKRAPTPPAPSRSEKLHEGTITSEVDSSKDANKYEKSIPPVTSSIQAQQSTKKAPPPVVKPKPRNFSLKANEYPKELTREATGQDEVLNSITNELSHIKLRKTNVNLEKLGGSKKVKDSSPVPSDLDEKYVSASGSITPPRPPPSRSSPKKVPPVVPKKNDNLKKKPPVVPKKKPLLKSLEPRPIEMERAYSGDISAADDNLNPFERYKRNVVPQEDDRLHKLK
Briefly: pull-down.

B1: Abp1-9myc (Actin binding protein 1) (natural protein, budding yeast, UniProt P15891 1-592, looked up)
chain: MALEPIDYTTHSREIDAEYLKIVRGSDPDTTWLIISPNAKKEYEPESTGSSFHDFLQLFDETKVQYGLARVSPPGSDVEKIIIIGWCPDSAPLKTRASFAANFAAVANNLFKGYHVQVTARDEDDLDENELLMKISNAAGARYSIQTSSKQQGKASTPPVKKSFTPSKSPAPVSKKEPVKTPSPAPAAKISSRVNDNNDDDDWNEPELKERDFDQAPLKPNQSSYKPIGKIDLQKVIAEEKAKEDPRLVQKPTAAGSKIDPSSDIANLKNESKLKRDSEFNSFLGTTKPPSMTESSLKNDDDKVIKGFRNEKSPAQLWAERKAKQNSGNAETKAEAPKPEVPEDEPEGEPDVKDLKSKFEGLAASEKEEEEMENKFAPPPKKSEPTIISPKPFSKPQEPVKAEEAEQPKTDYKKIGNPLPGMHIEADNEEEPEENDDDWDDDEDEAAQPPLPSRNVASGAPVQKEEPEQEEIAPSLPSRNSIPAPKQEEAPEQAPEEEIEEEAEEAAPQLPSRSSAAPPPPPRRATPEKKPKENPWATAEYDYDAAEDNELTFVENDKIINIEFVDDDWWLGELEKDGSKGLFPSNYVSLGN
On to B1, for which the binding result is reported as “binds”.
